The target in this assay is T1, soluble recombinant human FGFR3c human-IgG chimeric protein (human, UniProt P22607 23-375).
T1 sequence (looked up): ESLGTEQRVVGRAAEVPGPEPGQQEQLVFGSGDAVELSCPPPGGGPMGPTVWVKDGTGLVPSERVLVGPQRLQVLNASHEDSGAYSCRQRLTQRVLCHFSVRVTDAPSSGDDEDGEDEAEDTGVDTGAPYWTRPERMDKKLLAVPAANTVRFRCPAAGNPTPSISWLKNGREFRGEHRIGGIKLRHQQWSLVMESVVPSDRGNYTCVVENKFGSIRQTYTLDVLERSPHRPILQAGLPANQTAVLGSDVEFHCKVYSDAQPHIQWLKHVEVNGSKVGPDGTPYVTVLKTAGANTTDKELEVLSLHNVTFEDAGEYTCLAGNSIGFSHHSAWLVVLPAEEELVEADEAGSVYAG
The assay can be described thus: ligand and carbohydrate engagement.

B1: recombinant human FGF18 (ligand, UniProt O76093 28-207, looked up)
chain: EENVDFRIHVENQTRARDDVSRKQLRLYQLYSRTSGKHIQVLGRRISARGEDGDKYAQLLVETDTFGSQVRIKGKETEFYLCMNRKGKLVGKPDGTSKECVFIEKVLENNYTALMSAKYSGWYVGFTKKGRPRKGPKTRENQQDVHFMKRYPKGQPELQKPFKYTTVTKRSRRIRPTHPA
Consider B1, for which the binding result is recorded as “binds”.
